The values below come from patent US20060241031A1 (priority 2003, published 2006).

The target in experiment [1] is T1, LL-37 (Homo sapiens, UniProt P49913).
T1 construct: LL-37, […]; (Mw 4492) was synthesized by Innovagen AB; purchased Innovagen AB, Lund, Sweden; host or cells: chemical synthesis
T1 sequence (P49913 134-170 limits assumed): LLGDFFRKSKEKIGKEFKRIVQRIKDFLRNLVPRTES
The experiment can be described thus: Indirect ELISA, SIC homologues coated, binding of LL-37. Conditions: purified SIC homologues on microtiter plates; M1 protein negative control. For orientation: An ELISA detects its analyte on a solid surface through an enzyme-linked reagent.

The next experiment addresses T2, α-defensin (Homo sapiens, UniProt P59665).
T2 construct: α-defensin (HNP-1), […]; (Mw 3442) was purchased from Sigma; purchased Sigma
T2 sequence (P59665 65-94 limits assumed): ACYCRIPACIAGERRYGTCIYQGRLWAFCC
The experiment in a line: Antimicrobial assay, inhibition of bactericidal effect of α-defensin. Format: cell-based.

The target in experiment [2] is T1, LL-37. The experiment can be described thus: Antimicrobial assay, inhibition of bactericidal effect of LL-37. Format: cell-based.
Experimental: (§1) Antimicrobial assay—AP1 bacteria were grown to mid-log phase in TH broth, washed and diluted in 10 mM Tris-HCl, pH 7.5, containing 5 mM glucose. 50 μl bacteria (2×10^6 colony forming units (cfu)/ml) were incubated together with α-defensin or LL-37 at various concentrations for 2 h at 37° C. In subsequent experiments, bacteria were incubated with α-defensin and LL-37 at a concentration of 448 nM together with different concentrations of protein SIC or M1 protein and the reactions were carried out for 2 h (α-defensin) or 1 h (LL-37). To quantitate the bactericidal activity serial dilutions of the incubation mixtures were plated on TH agar, incubated overnight at 37° C., and the number of cfus were determined.
For a further experiment, the target named is LL-37 (human). The experiment can be described thus: cell-based or functional assay.
The subject of a further experiment is M1 protein. The experiment can be described thus: Indirect ELISA, binding of antibacterial peptides to coated M1 protein (control). More on the design: species or system S. pyogenes. Conditions: M1 protein applied to plastic wells as control.
Experiment [3] deals with protein SIC. The conditions noted are these: peptides on Immobilon filters probed with 125I-labelled SIC from M1 strain AP1.
Experimental: Slot-binding and SDS-polyacrylamide gel electrophoresis—Peptides were applied to polyvinylidene difluoride (PVDF) membranes (Immobilon, Millipore) using a Milliblot-D system (Millipore). Membranes were blocked in TBS (0.05 M Tris-HCl, pH 7.5, 0.15 M NaCl) containing 3% bovine serum albumin (SA), incubated with ^125I-labelled protein SIC for 3 h, and washed with TBS containing 0.05% Tween-20. Autoradiography was carried out using Kodak x-Omat AR films and regular intesifying screens.
Experiment [4] concerns protein SIC. Conditions: SIC applied to plastic wells, peptide added, detected with antibodies.
Experiment [5] deals with AP1 bacteria.
Experimental: as §1
Experiment [6] relates to AP1 bacteria. This is another data set of the same source.
Experimental: Bacterial growth assay—AP1 bacteria were grown to stationary phase in TH broth. 200 μl of TH was inoculated with 5 μl of the bacterial suspension in 96-well plates (Falcon) at 37° C. At early logarithmic phase various amounts of LL-37 was added and growth was followed by measuring the absorbance at 490 nm (using a BioRad 550 microplate reader). The amount of protein SIC in the growth medium was estimated by ELISA (see below).

Where two headings read alike, the source gives them in different places.

Experimental for α-defensin: as §1

For the substance “SIC: streptococcal inhibitor of complement, purified from S. pyogenes strain AP1 of serotype M1”, in the experiment with LL-37 [1], the “binding of LL-37 (ELISA, FIG. 3B)” value was “showed binding of LL-37 clearly above M1 protein”. The “potency in blocking α-defensin and LL-37 relative to the M12 and M55 homologues” value in the experiment with α-defensin (from inhibition curves FIG. 3C, both peptides at 448 nM) is 5-10 times. Also, in the experiment with α-defensin (α-defensin 0.448 μM, AP1 bacteria, 2 h, M1 protein at a maximum of 0.72 μM), the “blocking of antibacterial activity of α-defensin” value is reported as “blocks”. For the same substance, the “blocking of antibacterial activity of LL-37” value with LL-37 [2] (LL-37 0.448 μM, AP1 bacteria, M1 protein at a maximum of 0.72 μM) is reported as “blocks”. Also, the “efficiency in blocking LL-37 relative to α-defensin” value with LL-37 [2] (from inhibition curves, FIG. 2 right panel) was “about ten”.

In the case of “protein SIC purified from S. pyogenes strain AP1 (serotype M1)”, in the experiment with LL-37 (human), the efficiency in blocking LL-37 against blocking α-defensin, from inhibition curves was 10 times and the fold rise of the LL-37 concentration required to kill 50% of the bacteria, with secreted SIC against washed bacteria turned out to be 50 times.

As to “human antibacterial peptide LLGDFFRKSKEKIGKEFKRIVQRIKDFLRNLVPRTES (Mw 4492), synthesized by Innovagen AB [LL-37]”, in the experiment on M1 protein, the “interaction with M1 protein (ELISA, FIG. 1B)” value is listed as “at background level”. The “interaction with 125I-labelled SIC (slot-binding, FIG. 1A)” value in the experiment with protein SIC [3] is listed as “interacts”. Besides, in the experiment on protein SIC [4], the “affinity for SIC (ELISA, FIG. 1B)” value is listed as “showed affinity”. Further, the “concentration required for 100% killing” value in the experiment on AP1 bacteria [5] (AP1 washed and resuspended in buffer, no SIC present, 2 h 37° C.) is listed as “approximately 0.4 μM”. For the same substance, the EC50 is 0.2 µM in the experiment with AP1 bacteria [5] (read-out: concentration of LL-37 required to kill 50% of the bacteria, bacteria washed to remove SIC before addition of LL-37) and 11.1 µM in the experiment with AP1 bacteria [6] (read-out: concentration of LL-37 required to kill 50% of the bacteria, AP1 at early logarithmic growth phase, SIC 4-5 μg/ml growth medium). Moreover, in the experiment with AP1 bacteria [6] (11.1 μM compared to 0.2 μM), the “fold increase of concentration to kill 50% with secreted SIC versus washed bacteria” value is “more than 50 times”.
